Assay results reported in patent publication US20220186239A1 (NINGBO UNIVERSITY, published 2022).

Molecular target: T1, AD-T (UniProt P03070 87-708)
T1 construct: Commercial Y2H control prey; also called control prey
Experiment: yeast two-hybrid in Y2H Gold; growth on QDO and colour on QDO/X/A

B1: BD-Lam (other)
chain: MKLLSSIEQACDICRLKKLKCSKEKPKCAKCLKNNWECRYSPKTKRSPLTRAHLTEVESRLERLEQLFLLIFPREDLDMILKMDSLQDIKALLTGLFVQDNVNKDAVTDRLASVETDMPLTLRQHRISATSSSEESSNKGQRQLTVSSEEVVSREVSGIKAAYEAELGDARKTLDSVAKERARLQLELSKVREEFKELKARNTKKEGDLIAAQARLKDLEALLNSKEAALSTALSEKRTLEGELHDLRGQVAKLEAALGEAKKQLQDEMLRRVDAENRLQTMKEELDFQKNIYSEELRETKRRHETRLVEID
notes: Commercial Y2H negative control bait; also called negative control bait
binding result: no binding
